Results taken from the DeepSol protein solubility set.

Experiment: soluble on expression in E. coli; label from the status in PepcDB or PDB records

Sequence | soluble on expression in E. coli
ALYGNSSGGVINVTSQTGAQPPTVEASSYYGSFGTWHYGMKATGAVGDGSHAGDVDYTVSTNRFTTHGYRDHSGARKNLANARLGVRINDVSKLTLLLNSVDIKANDAGGLTADEWRDNPRQSPRGDQYNTRKNTRQTQAGLRYERQLSAQDDLSVMMYAGERETTQFQSIPRAPQLKPSHAGGVIDLTRHYQGIDTRLTHRGELLVPVTLTAGLDYENMSERRKGYENFVMVNGAPQYGEQGALRRNERNLMWNVDPYLQTQWQLTDKLSLDAGVRYSSVWFDSNDYYITPGNGDDSGDASYHKWLPAGSLKYALTDAWNVYLSAGRGFETPTINELSYRSDNQSGLNFGLKPSTNDTVEIGSKTRIGNGLFTAALFQTNTDNEIVVDSSSGGRTSYKNAGKTRRQGMELGLDQQFGESWRLKAAWTWLDATYRTNVCDDASCNGNRIPGIARNMGYASFGYQPEQGWYAGSDIRYMSDIMANDENTAKAPSWTVVGLTTGYKWSYGRMDMDLFGRIDNLFDREYVGSVIVNESNGRYYEPAPGRNYGIGLNLAWRFE | not soluble
MKVIVVGCTHAGTFAVKQTIADHPDADVTAYEMNDNISFLSCGIALYLGKEIKNNDPRGLFYSSPEELSNLGANVQMRHQVTNVDPETKTIKVKDLITNEEKTEAYDKLIMTTGSKPTVPPIPGIDSSRVYLCKNYNDAKKLFEEAPKAKTITIIGSGYIGAELAEAYSNQNYNVNLIDGHERVLYKYFDKEFTDILAKDYEAHGVNLVLGSKVAAFEEVDDEIITKTLDGKEIKSDIAILCIGFRPNTELLKGKVAMLDNGAIITDEYMHSSNRDIFAAGDSAAVHYNPTNSNAYIPLATNAVRQGRLVGLNLTEDKVKDMGTQSSSGLKLYGRTYVSTGINTALAKANNLKVSEVIIADNYRPEFMLSTDEVLMSLVYDPKTRVILGGALSSMHDVSQSANVLSVCIQNKNTIDDLAMVDMLFQPQFDRPFNYLNILGQAAQAQADKAHK | soluble
MSLGNDNEKSTTKTSPDKIKFLETSELLTLNTTAEEDFASFTAQNQVFEGLYTLDQKDNFVPGVAGGMPEISADQTKYTIKLKKNAKWSDGSQVTADDFVYAWRRAVDPKTAPGYSALFKDSIKNATEINEGKLPVTDLGVVATDPTTLEITLKKPVPYFISLLSFETFFPQKESFVKKQGDKYGTDSAHTLYNGPFVMKDWGGNITNKWTYAKNDQYWDKDNVKVNEIDVQVAKDINAGVNLYNTNEADRVPLSGDFAKQYKDKKDFQTEKDALISYLRMNQKRDGKATPLANNSLRHALNLAVDKKQLTDRILGDGSFPANGLLPKDFVQNPTTGADFRTDSGDHLVYNKEEALKYWKQAQKELGTDKVTIELLGDDQETTKTIFAYLKAQFEDNLPGVTIKVKNMPSKSATQLTSDGNYDLSLAAWMPDFKDPWTYSSLFLSDYFNNHMSYNSPAYDRLVKSTDTTLATKPEERWNAFVASEKVLLDDDAAILPLYQHQTAVLQRTDITGVQKHAFGSPYSYKFIRVEKEGHHHHHH | soluble
MGSDKIHHHHHHMALPTQLVYPGFEKIPRFWDNEQQSQVARVDPGEYYYSCQDEFIYTRLGSCVAACIWDPLMGIGGLNHFLLPEKVLHEDWHQLTSYSCRYGNWAMEQLINGILSAGGLKSRLKAKIFGGATLGRISVLNVGQSNIAFVREYLALEGIPVMSEDLGGPWPRKVLFHPQSGRVRLKRLEMTGMAQIEREEEAYLNDVAEHAKVPEPGSIELF | not soluble
ELNKNFDAVVDTAIARWRRSGPVVAMTRPDLKHGRGGLRDFELIKALALGHLCNLPQLDAQHQLLLDARTLLHVHARRSRDVLDPEFAVDVAMDLGFVDRYHLGREIADAARAIDDGLTTALATARGILPRRTGFAFRNASRRPLDLDVVDANGTIELSKKPDLNDPALPLRVAAAAATTGLPVAESTWVRLNECPPLPEP | not soluble
MSLGGANGKSGLRIWRNARLATMADGVAGLGIVEKGAIATRDGLIIYAGAEASMPALAGPGAETVDCEGRWITPGLIDCHTHLVYAGNRANEFEMRLAGATYEEVARAGGGIVSSVKSLRAANEDELVAQTLPRLDALMAEGVTTVEVKSGYGLDLDNEKKSLRAARRLANERPVTIRTTCLAAHALPPEAKGDKEAFVDLVAGTILPGVAAEKLADAVDGFCEGIAFSPEQIARVFDKARALGLPVKLHADQLSNLHGAALAASYGALSADHLEYTDEAGAAAMAKAGTVATILPGAYYFIRETKKPPVDLFRRHGVKMAVATDSNPGTSPLTSLLLTMNMAATLFGLTVDECLAGVTREAARALGLLDKTGTLEAGKSADLAIWDIERPAELVYRMGFNPLHARIWRGQGSLSAPNTQPAFTIRTAKGIITITTDPNSSSVDKLAAALEHHHHHH | soluble
MTGVYADAVLVSVTVGDTVTLHTAGVKNLQPADVKWYFNDIRIAQLDGDLRFNCTDIQCNDRTEIFIDRLRLDRKTGALTIVNITNTHSGVYQLVVIGGGGTIFNVTVHDDPATHYNQVKKNQGESVTFNPGVRRDLIVVLKCLLNNTLIAEISVNQSQICADVQCKERFTDRLKLDNESASLTITNTNITDSGNYTSVILISSDRRFSITREKRFSLTVTSLSSSQPSGGAIAGIVVMLLLLL | not soluble
MKEKGGDSLKYCYQCGLCDSVCPWNRVRQFSMRKIVRQGTFGLTEIEQEDIWRCSTCGTCPSRCPRGVNQIEAGVAMRRIGAEYDVYPGHVGTIRNVVASLTSEGNSLEHHHHHH | not soluble
MSLKNIFSVLEERVERTPDDNLVEYKNAQGEWAAFTAAEFKNKVVALAKGLIARGVMPGDSVSIIAHTCWQWTALDVAIMSIGALTVPVYETNSPAQVKMIFNDANVKMAFAEDDFQRDKIESVRDQCPDLGDVYVIGLGAIDTIIEYGRAVSDAEFLEREQAVKGSDLATIVYTSGSTGTPKGVELTHANFVFITYSGVNSMPDIAMKPNRRLLLFLPLAHVFARYMQFFCFAGNVSLGLSSNLKTILADFKAFKPTFILAVPRIFEKIYNAASQKAGAGFKGRVFADATQTACDWSHAQQSGGSIPLALNAKHALYNKLVYSSIMEVFGGHVEYAVSGGAPLDSSIAHFFNGVGLSLLEGYGMTETCAPSSVNPTEGYKIGTIGLPLQGVTMGVDEEGELCIKSPAVCAGYHNNPDVTKQQIVDGWLHTGDLGSIDDDGFVSIVGRKKDLIITAGGKNVSPCEMEASIMTSPVVSQCVMIGDRKPFIAAIISLDLAETNLWLESKGAEQVADLDEASKNPIVRAEVERAVNKANELASRAESIRKFEIVPDEFTEENGLVTPSMKARRQAVVEHYRTLIDKEGHHHHHH | not soluble
MGSDKIHHHHHHQIQQQSPYPKREFRGAWIQAVNGQFRGIPTEKLKQTLIDQLNSLQGAGINAIIFQVRPEADALYASQLEPWSRFLTGVQGQAPSPYWDPMQFMIDECHKRGMEFHAWINPYRVKTSLKSELSANHLYNIHPEWFVTYNNQLFFDPALPESRRHICMVVADIVSRYDVDAIHMDDYFYPYPAKGMDFPDDASFARYGGGFTNRADWRRSNVNILIQKIHETIRGLKPWVKFGISPFGIYRNEKNDPLGSKTNGLQNYDDLYADVLLWARNGWVDYNIPQIYWQIGHPAADYETLVKWWAKNTENRPLFIGQSVMNTIQNADPKNPSMNQLPRKMALERAYQTIGGSCQWPASAVVENAGKYRDALVQEYHKYPALVPVFDFMDDKAPGKVRKVKKVWTEDGYMLFWTPPKAKDEMDRAVQYVVYRFGDKEKVNIDDASHIVAVTRNNFYKLPYKDGKNKYRYVVTALDRLHNESKSVSKKVKL | not soluble
MQLYYLGPKGTFSYLACRQYFSEKETTFQPKSNLFEVIKAVADDDTSIGVVPIENSIEGTINIVADALAQQDVFAHGEIRLDINFALYGNGTDSISDIKKVYSIAPAISQTTNYIHQHQFDYDYVDSTIQSLTKIENGVAAIAPLGSGEAYGFTPIDTHIEDYPHNVTRFLVIKNQQQFDQNATSLMFLITPMHDKPGLLASVLNTFALFNINLSWIESRPLKTQLGMYRFFVQADSAITTDIKKVIAILETLDFKVEMIGAFNLEHHHHHH | not soluble
MTISTNHSLASRQQLKQGKPFSILVLGTDVGALGRGTSYAGNTDTLELITVNPKKHTLTTTAIPRDTLVRVETKNKIEYTKINAAYALGGPREIKKQVHELLDVPVDYYALVNMGGLEKTVNAVGGVTVNNPFAFKYEGHTYPKGKQYLNGSEALGYSRMRYDDPDNDYGRQKRGQQVLLSALTKVNKSKNIMQMNSLLDTAKDNVRTDLPLDDLMTLYKNYHGALADTQSDHLQGKNATIDNFSFQIAPNWEMQRLSDNTRQALGLTKVKVNNIQTKMNDMQTNWNGYNNVNYVLPNNAQVYIPVNKVLEHHHHHH | soluble
